Measured values: publication PMC6947831, “Mitochondrial localization of Dictyostelium discoideum dUTPase mediated by its N-terminus” (BMC Research Notes, 2020)

B1: full-length D. discoideum dUTPase (Dictyostelium discoideum) (protein)
chain: MPIEQKYFSLFSNLFKRLTTNNNNNNYLKMAPPNFETFKVKKLSDKAIIPQRGSKGAAGYDLSSAHELVVPAHGKALAMTDLQIAIPDGTYGRIAPRSGLAWKNFIDCGAGVIDSDYRGNVGVVLFNHSDVDFKVAVGDRVAQLIFERIVTPEPLEVDEIDETQRGAGGFGSTGVKVQN
B2: core D. discoideum dUTPase (Dictyostelium discoideum) (protein)
chain: FKVKKLSDKAIIPQRGSKGAAGYDLSSAHELVVPAHGKALAMTDLQIAIPDGTYGRIAPRSGLAWKNFIDCGAGVIDSDYRGNVGVVLFNHSDVDFKVAVGDRVAQLIFERIVTPEPLEVDEIDETQRGAGGFGSTGVKVQN
notes: core lacking residues 1-37, N-terminal GSHM from cloning, E. coli, His-tag removed, homotrimer

Columns and labels:
[1] = substrate: O=c1ccn([C@H]2C[C@H](O)[C@@H](COP(=O)(O)OP(=O)(O)OP(=O)(O)O)O2)c(=O)[nH]1; experiment: stopped-flow absorbance, proton release with cresol red; type: biochemical, Dictyostelium discoideum; settings: enzyme 0.15 µM
From the text: stopped-flow absorbance, proton release with cresol red on full-length D. discoideum dUTPase

[2] = substrate: O=c1ccn([C@H]2C[C@H](O)[C@@H](COP(=O)(O)OP(=O)(O)OP(=O)(O)O)O2)c(=O)[nH]1; experiment: as above; type: biochemical, Dictyostelium discoideum; settings: enzyme 0.15 µM; remark: listed apart in the source
From the text: stopped-flow absorbance, proton release with cresol red on core D. discoideum dUTPase

Row | Protein | Km [1] | Vmax [1] | Km [2] | Vmax [2] | kcat [2] | kcat/Km [2]
1 | B1 | 1.0 ± 0.2 µM | 30 µM/min | – | – | – | –
2 | B2 | – | – | 0.5 ± 0.1 µM | 84 µM/min | 9.3 s⁻¹ | 1.86e+07 M⁻¹ s⁻¹
